# Assay results published in patent US20220073581A1 (UCB, published 2022).
# T1: IL-2-Rβ (IL-2 receptor β chain, R&D Systems) (UniProt P14784 27-239)
# T1 construct: also called IL-2-sRβ
# T1 sequence (looked up): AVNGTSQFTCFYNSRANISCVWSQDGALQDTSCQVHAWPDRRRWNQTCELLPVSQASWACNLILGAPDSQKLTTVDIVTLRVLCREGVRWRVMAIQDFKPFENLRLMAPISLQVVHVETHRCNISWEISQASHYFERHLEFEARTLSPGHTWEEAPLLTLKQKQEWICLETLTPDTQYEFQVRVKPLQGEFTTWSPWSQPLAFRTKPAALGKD
# B1: HyHEL5/VHH D3L11Fwk3 (anti-lysozyme HyHEL5 Fab with anti-lysozyme VHH D3L11 inserted into framework 3 of the light chain) (bispecific antibody)
# heavy: EVQLQQSGAELMKPGASVKISCKASGYTFSDYWIEWVKQRPGHGLEWIGEILPGSGSTNYHERFKGKATFTADTSSSTAYMQLNSLTSEDSGVYYCLHGNYDFDGWGQGTTLTVSSASTKGPSVFPLAPSSKSTSGGTAALGCLVKDYFPEPVTVSWNSGALTSGVHTFPAVLQSSGLYSLSSVVTVPSSSLGTQTYICNVNHKPSNTKVDKKVEPKSC
# light: DIVLTQSPAIMSASPGEKVTMTCSASSSVNYMYWYQQKSGTSPKRWIYDTSKLASGVPVRFSGSGSGSGGGGSDVQLVESGGGSVQAGGSLRLSCAASGSTDSIEYMTWFRQAPGKAREGVAALYTHTGNTYYTDSVKGRFTISQDKAKNMAYLRMDSVKSEDTAIYTCGATRKYVPVRFALDQSSYDYWGQGTQVTVSSGGGGSGGGGSGGGGSTSYSLTISSMETEDAATYYCQQWGRNPTFGGGTKLEIKRTVAAPSVFIFPPSDEQLKSGTASVVCLLNNFYPREAKVQWKVDNALQSGNSQESVTEQDSKDSTYSLSSTLTLSKADYEKHKVYACEVTHQGLSSPVTKSFNRGEC
# notes: also called Antibody: HyHEL5 Fab, Framework 3 Insert: VHH D3L11
# B2: CA645 Fab-Fwk3 CA497 dsscFv (vLvH) (bispecific antibody)
# heavy: EVQLLESGGGLVQPGGSLRLSCAVSGIDLSNYAINWVRQAPGKGLEWIGIIWASGTTFYATWAKGRFTISRDNSGGGGSGGGGSAIQLTQSPSSLSASVGDRVTITCKASESVSSSMYSYMHWYQQKPGKAPKLLIYRASNLESGVPSRFSGSGSGTDFTLTISSLQPEDFATYYCQQSWTAPRTFGCGTKVEIKGGGGSGGGGSGGGGSEVQLVESGGGLVKPGGSLRLSCAASGVIFSDYYMAWVRQAPGKCLEWVASINFNADISYYRESVKGRFTISRDDSKNTLYLQMNSLKTEDTAVYYCTTDANRQNYDWFAYWGQGTLVTVSSGGGGSGGGGSKNTVYLQMNSLRAEDTAVYYCARTVPGYSTAPYFDLWGQGTLVTVSSASTKGPSVFPLAPSSKSTSGGTAALGCLVKDYFPEPVTVSWNSGALTSGVHTFPAVLQSSGLYSLSSVVTVPSSSLGTQTYICNVNHKPSNTKVDKKVEPKSC
# light: DIQMTQSPSSVSASVGDRVTITCQSSPSVWSNFLSWYQQKPGKAPKLLIYEASKLTSGVPSRFSGSGSGTDFTLTISSLQPEDFATYYCGGGYSSISDTTFGGGTKVEIKRTVAAPSVFIFPPSDEQLKSGTASVVCLLNNFYPREAKVQWKVDNALQSGNSQESVTEQDSKDSTYSLSSTLTLSKADYEKHKVYACEVTHQGLSSPVTKSFNRGEC
# B3: CA645 Fab-Fwk3 CA497 dsscFv (vHvL) (bispecific antibody)
# heavy: EVQLLESGGGLVQPGGSLRLSCAVSGIDLSNYAINWVRQAPGKGLEWIGIIWASGTTFYATWAKGRFTISRDNSGGGGSGGGGSEVQLVESGGGLVKPGGSLRLSCAASGVIFSDYYMAWVRQAPGKCLEWVASINFNADISYYRESVKGRFTISRDDSKNTLYLQMNSLKTEDTAVYYCTTDANRQNYDWFAYWGQGTLVTVSSGGGGSGGGGSGGGGSAIQLTQSPSSLSASVGDRVTITCKASESVSSSMYSYMHWYQQKPGKAPKLLIYRASNLESGVPSRFSGSGSGTDFTLTISSLQPEDFATYYCQQSWTAPRTFGCGTKVEIKGGGGSGGGGSKNTVYLQMNSLRAEDTAVYYCARTVPGYSTAPYFDLWGQGTLVTVSSASTKGPSVFPLAPSSKSTSGGTAALGCLVKDYFPEPVTVSWNSGALTSGVHTFPAVLQSSGLYSLSSVVTVPSSSLGTQTYICNVNHKPSNTKVDKKVEPKSC
# light: B2 light
# B4: CA645/IL-15Fwk3 with bovine short linker (Fab)
# heavy: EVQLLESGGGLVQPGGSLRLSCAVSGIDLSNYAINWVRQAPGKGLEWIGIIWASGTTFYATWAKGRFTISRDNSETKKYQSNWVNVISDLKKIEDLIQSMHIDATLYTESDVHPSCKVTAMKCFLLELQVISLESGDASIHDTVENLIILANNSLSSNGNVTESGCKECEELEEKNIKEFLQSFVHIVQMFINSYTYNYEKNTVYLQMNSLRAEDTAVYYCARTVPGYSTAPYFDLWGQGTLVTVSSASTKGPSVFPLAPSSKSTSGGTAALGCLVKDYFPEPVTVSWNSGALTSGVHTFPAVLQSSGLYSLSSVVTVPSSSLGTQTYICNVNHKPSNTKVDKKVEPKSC
# light: B2 light
# notes: also called CA645 Fab heavy chain with human IL-15 inserted into framework 3 with bovine short linker
# B5: CA645/IL-15Fwk3 with 2xG4S linker (Fab)
# heavy: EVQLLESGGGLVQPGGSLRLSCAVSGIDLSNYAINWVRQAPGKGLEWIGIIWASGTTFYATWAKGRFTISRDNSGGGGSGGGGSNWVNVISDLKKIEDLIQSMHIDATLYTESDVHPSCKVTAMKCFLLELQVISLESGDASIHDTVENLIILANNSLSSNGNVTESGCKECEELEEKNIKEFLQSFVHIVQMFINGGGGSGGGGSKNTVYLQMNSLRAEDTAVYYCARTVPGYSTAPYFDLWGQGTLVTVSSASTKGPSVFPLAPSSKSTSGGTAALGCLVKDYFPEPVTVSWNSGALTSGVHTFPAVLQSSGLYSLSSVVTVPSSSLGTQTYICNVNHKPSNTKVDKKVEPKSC
# light: B2 light
# notes: also called CA645 Fab heavy chain with human IL-15 inserted into framework 3 with 2xG4S linker
# B6: CA645/IL-15Fwk3 with bovine long linker (Fab)
# heavy: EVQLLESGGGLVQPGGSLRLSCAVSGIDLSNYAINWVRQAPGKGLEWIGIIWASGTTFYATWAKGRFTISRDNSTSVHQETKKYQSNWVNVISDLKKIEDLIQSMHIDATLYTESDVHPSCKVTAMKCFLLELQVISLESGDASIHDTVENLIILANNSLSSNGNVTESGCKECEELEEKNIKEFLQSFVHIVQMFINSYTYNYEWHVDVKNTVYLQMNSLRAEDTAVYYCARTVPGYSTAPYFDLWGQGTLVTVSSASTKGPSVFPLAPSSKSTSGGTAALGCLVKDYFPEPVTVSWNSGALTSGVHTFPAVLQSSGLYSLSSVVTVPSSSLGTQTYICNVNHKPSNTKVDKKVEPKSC
# light: B2 light
# notes: also called CA645 Fab heavy chain with human IL-15 inserted into framework 3 with bovine long linker
# Experiments:
# Lysozyme (R&D Systems) = Lysozyme (R&D Systems) (UniProt P00698 19-147); experiment: SPR, Fab construct captured via anti-human F(ab)2, lysozyme 0.1-10 nM, Langmuir model
# Method: Briefly, the carboxymethyl dextran surface was activated with a fresh 1:1 (v/v) mixture of 50 mM N-hydroxysuccimide and 200 mM 1-ethyl-3-(3-dimethylaminopropyl)-carbodiimide for 5 minutes at a flow rate of 10 μL/min. The anti-human F(ab)₂ in 10 mM acetate pH 5.0 buffer was covalently coupled to chips at 50 μg/mL in a 10 minute pulse at the same flow rate. Finally the surface was deactivated with a 10 minute pulse of 1 M ethanolamine.HCl pH 8.5. A reference flow cell was prepared on the chip by omitting the protein from the above procedure.
# A typical SPR cycle comprised a flow rate of 10 μL/min with HBS-EP as running buffer and diluted supernatant was injected for 1 min to capture the antibody/Fab fusion protein. This was followed by a 30 μl injection of the diluted cognate ligand or receptor or buffer control. The subsequent dissociation phase was monitored for at least 3 min. […] In some experiments a specificity control cycle was included where the cognate receptor/ligand (the insert portion of the antibody/Fab fusion protein) was pre-mixed with a 2-fold molar excess of its binding partner. Each cycle terminated with a regeneration step comprising two 10 μL injections of 40 mM HCl interspersed with a 5 μL injection of 5 mM NaOH.
# Following capture of the Fab construct, 90 μl of the cognate ligand or buffer control was injected followed by a dissociation phase of 180 sec. A ligand binding over a range of concentrations (0.1, 0.2, 0.5, 1, 2, 5, & 10 nM) was tested. Sensorgrams were corrected for drift by subtraction of a zero ligand sensorgram and for non-specific interaction by subtraction of the wild type Fab corrected sensorgram. Affinity constants were calculated from separate dissociation and association rate constants that were fitted to the corrected sensorgrams using the Langmuir model of the BIAevaluation software (version 4.1.1).
# human recombinant IL-17A = human recombinant IL-17A (human, UniProt Q16552 24-155, limits assumed); experiment: cell-based or functional assay
# [1] = target: T1, IL-2-Rβ (IL-2 receptor β chain, R&D …); experiment: SPR (Biacore), fusion captured on anti-human F(ab)2, 100 nM IL-2-Rβ injected
Binder,"IL-17A EC50 (ng/ml), neutralisation of IL-17A (IL-6 secretion by Hela cells), with HSA (human recombinant IL-17A) [ng/mL]","IL-17A EC50 (ng/ml), neutralisation of IL-17A (IL-6 secretion by Hela cells), without HSA (human recombinant IL-17A) [ng/mL]",binding result [1],further results
B1,,,,Kd (Lysozyme (R&D Systems)): 0.026 nM
B2,10.8,10.5,,
B3,8.7,10.6,,
B4,,,binds,
B5,,,binds,
B6,,,binds,
